The target of test [1] is canine MHC Class I DLA-12 antigen (canine (Canis lupus familiaris)). Briefly: flow cytometry on cells of CLBL-1 xenograft tumours (PBS group) [B].
The target is the same in test [2]. Briefly: flow cytometry on canine PBMCs [E]. (In general: A flow cytometer gives signals particle by particle.)

B1: cLy-m10C5 (antibody, V domains shown)
VH: EVQLQQSGPELVKPGASVKISCKASGYTFTDYNMHWVKQSHGKSLEWIGYIYPYNGGTDYNQKFKSKATLTVDNSSSTAYMELRSLTSDDSTVYYCARGGLVGAMDYWGQGTSVTVSS
VL: DIQMTQSPASLSASVGETVTITCRASGNIHNSLAWYQQKQGKSPQLLVYNAKTLPDGVPSRFSGSGSGTQYSLKINSLQPEDFGSYYCQHFWSIPWTFGGGTKLEIK
Molecule B1 returned an FL1-H (percent of cells in the positive gate) in test [1] of 89.4%. Moreover, the FITC-H subset (percent of cells in the positive gate) in test [2] was determined as 59.4%.

B2: cLy-c10C5 (antibody, V domains shown)
VH: B1 VH
VL: B1 VL
Molecule B2 displayed an FITC-A (percent of cells in the positive gate) in test [1] of 98.7%.

The record behind these values is patent US20240132595A1.
